Experimental data from patent US20250353909A1 (IMCHECK THERAPEUTICS, published 2025).

Legend:
[1] = biological target: human BTN3A, endogenous on human cells (PBMCs; Daudi cells) (human) (UniProt O00481); experiment: flow cytometry, human PBMCs Donor 1, from the fitted curve
[2] = biological target: cynomolgus BTN3A, endogenous on cynomolgus PBMCs (cynomolgus); experiment: flow cytometry, cynomolgus PBMCs Donor 3, from the fitted curve
[3] = biological target: cynomolgus BTN3A, endogenous on cynomolgus PBMCs (cynomolgus); experiment: flow cytometry, cynomolgus PBMCs Donor 1, from the fitted curve
[4] = biological target: cynomolgus BTN3A, endogenous on cynomolgus PBMCs (cynomolgus); experiment: flow cytometry, cynomolgus PBMCs Donor 2, from the fitted curve
[5] = biological target: BTN3A1 antigen (Sino Biological cat. no. 15973-H08H) (human) (UniProt O00481); experiment: SPR Biacore T200, multi-cycle kinetics, antibody captured on Protein A, BTN3A1 as analyte
[6] = biological target: BTN3A1 antigen (Sino Biological cat. no. 15973-H08H) (human) (UniProt O00481); experiment: SPR Biacore T200, single cycle kinetics, culture supernatants
[7] = biological target: cynomolgus BTN3A, endogenous on cynomolgus PBMCs (cynomolgus); experiment: flow cytometry, cynomolgus PBMCs Donor 1, PE anti-human secondary
[8] = biological target: human BTN3A, endogenous on human cells (PBMCs; Daudi cells) (human) (UniProt O00481); experiment: flow cytometry, human PBMCs Donor 1, PE anti-human secondary
[9] = biological target: cynomolgus BTN3A, endogenous on cynomolgus PBMCs (cynomolgus); experiment: flow cytometry, cynomolgus PBMCs Donor 3, PE anti-human secondary
[10] = biological target: cynomolgus BTN3A, endogenous on cynomolgus PBMCs (cynomolgus); experiment: flow cytometry, cynomolgus PBMCs Donor 2, PE anti-human secondary
[11] = biological target: T1, human BTN3A, endogenous on human cells (PBMCs; Daudi cells) (human, UniProt O00481 30-513); experiment: cell-based or functional assay
[12] = biological target: T2, BTN3A1 antigen (Sino Biological cat. no. 15973-H08H) (human, UniProt O00481 30-254); experiment: SPR Biacore T200, single cycle kinetics, culture supernatants
T2 construct: Bought recombinant antigen; also called CD277
Description: To assess the binding of all Composite Human Antibody™ variants and to select antibodies with suitable affinity to BTN3A as compared to the original murine antibody, single cycle kinetic analysis was performed on supernatants from transfected cell culture using a Biacore T200 (serial no. 1909913) running Biacore T200 Evaluation Software V2.0.1 (Uppsala, Sweden).

[13] = biological target: T2, BTN3A1 antigen (Sino Biological cat. …); experiment: SPR Biacore T200, multi-cycle kinetics, antibody captured on Protein A, BTN3A1 as analyte
Description: Multi-cycle kinetic analysis was performed on the six selected humanized 103.2 variants (VH4/Vκ2, VH4/Vκ3, VH4/Vκ4, VH5/Vκ2, VH5Vκ3, VH5/Vκ4) together with the chimeric antibody and the humanized variant, VH1/Vκ1, using a Biacore T200 (serial no. 1909913) instrument running Biacore T200 Evaluation Software V2.0.1 (Uppsala, Sweden).
Purified antibodies were diluted to a concentration of 2 μg/ml in 2% BSA/PBS. At the start of each cycle, each antibody was captured on the Protein A at a density (RL) of ˜146.5 RU (theoretical value to obtain an RMax of ˜50 RU). Following capture, the surface was allowed to stabilize before injection of the BTN3A1 antigen (Sino Biological cat. no. 15973-H08H). BTN3A1 was titrated in 0.1% BSA/HBS-P+(running buffer) in a two-fold dilution range from 25 to 0.78 nM. The association phase was monitored for 400 seconds and the dissociation phase for 35 minutes (2100 seconds). Kinetic data was obtained using a flow rate of 50 μl/min to minimize any potential mass transfer effects. Regeneration of the Protein A surface was conducted using two injections of 10 mM glycine-HCL pH 1.5 at the end of each cycle. Two blanks (no BTN3A1) and a repeat of a single concentration of the analyte were performed for each tested antibody to check the stability of the surface and analyte over the kinetic cycles. The signal from the reference channel Fc1 was subtracted from that of Fc2, Fc3 and Fc4 to correct for differences in non-specific binding to a reference surface. Additionally, blank runs were subtracted for each Fc to correct any antigen-independent signal variation, such as drift. Sensorgrams were fitted using a one-to-one binding mathematical model with a global RMax parameter and no bulk signal (Constant RI=0 RU).
The relative KD compared to 103.2 chimeric (VH0/Vκ0) was calculated by dividing the KD of the 103.2 Composite Human Antibody™ variants by that of the chimeric on the same chip.

[14] = biological target: T1, human BTN3A, endogenous on human cells …; experiment: flow cytometry, human PBMCs Donor 1, PE anti-human secondary
Description: Frozen PBMCs were revived, added to pre-warmed AIM-V (ThermoFisher Scientific, Loughborough, UK) media and counted. Cells were harvested, washed by centrifuging at 500×g for 10 minutes and then resuspended in 1×DPBS, pH 7.4. This step was repeated once and the cells were resuspended in 1×DPBS, pH 7.4 at 1×10⁶ cells/mL. Cells were stained for viable and dead cells by incubating for half an hour in the dark using the LIVE/DEAD® Far Red Dead Cell staining kit (ThermoFisher, Paisley, UK) following the manufacturer's instructions. An aliquot of cells heated at 70° C. for ten minutes was included as the dead cell control. During this staining, a three-point, 1 in 3 titration curve of test antibody (starting from 0.063 μg/mL for the selected antibodies) was prepared in Flow buffer (0.5% BSA, 2 mM EDTA, 1×DPBS, pH 7.4) in a 96-well dilution plate. […] Cells were then analysed on an Attune NxT focusing cytometer (ThermoFisher Scientific, Loughborough, UK), collecting 10,000 events per sample using two laser channels: RL1 for live/dead cells and BL2 for PE. Data was analysed using the instrument statistic tool or FlowJo software (Version 10, FlowJo, LLC, Ashland, USA) gating on the live population of lymphocyte cells. The X-median values from BL2 channel (PE signal) were then calculated and plotted against concentration. […]

[15] = biological target: T3, human BTN3A2 expressed on HEK293 cells (human, UniProt P78410 30-334); experiment: cell microarray (Retrogenix), fixed HEK293 cells, 2 µg/ml antibody
T3 construct: Cell microarray (Retrogenix); also called BTN3A2 (two isoforms)

[16] = biological target: T4, human BTN3A3 expressed on HEK293 cells (human, UniProt O00478 30-584); experiment: as above
T4 construct: Cell microarray (Retrogenix); one isoform of BTN3A3 was a hit; also called BTN3A3 (one isoform)
T4 sequence (O00478 30-584 limits assumed): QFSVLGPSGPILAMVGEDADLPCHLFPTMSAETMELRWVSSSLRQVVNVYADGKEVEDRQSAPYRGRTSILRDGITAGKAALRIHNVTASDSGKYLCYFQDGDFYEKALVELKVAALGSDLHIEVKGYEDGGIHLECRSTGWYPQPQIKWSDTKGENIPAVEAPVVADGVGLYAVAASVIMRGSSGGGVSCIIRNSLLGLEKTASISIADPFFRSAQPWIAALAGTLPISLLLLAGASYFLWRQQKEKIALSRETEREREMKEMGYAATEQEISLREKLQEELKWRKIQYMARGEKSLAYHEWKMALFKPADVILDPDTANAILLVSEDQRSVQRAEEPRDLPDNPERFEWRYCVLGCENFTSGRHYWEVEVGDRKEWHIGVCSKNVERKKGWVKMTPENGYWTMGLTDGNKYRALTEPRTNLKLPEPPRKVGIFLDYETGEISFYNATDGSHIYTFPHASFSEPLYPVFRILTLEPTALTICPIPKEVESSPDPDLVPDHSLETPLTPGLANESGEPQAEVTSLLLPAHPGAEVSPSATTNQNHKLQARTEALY

BTN3A1 antigen (Sino Biological cat. no. 15973-H08H) (human), sequence (O00481 30-254 limits assumed): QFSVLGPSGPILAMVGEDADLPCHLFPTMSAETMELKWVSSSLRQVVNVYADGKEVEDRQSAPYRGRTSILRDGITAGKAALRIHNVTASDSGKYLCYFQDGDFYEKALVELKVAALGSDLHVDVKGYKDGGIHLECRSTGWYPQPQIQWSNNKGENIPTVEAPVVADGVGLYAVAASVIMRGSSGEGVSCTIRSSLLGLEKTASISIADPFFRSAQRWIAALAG
T2 sequence (O00481 30-254 limits assumed): as above
human BTN3A, endogenous on human cells (PBMCs; Daudi cells) (human), sequence (O00481 30-513): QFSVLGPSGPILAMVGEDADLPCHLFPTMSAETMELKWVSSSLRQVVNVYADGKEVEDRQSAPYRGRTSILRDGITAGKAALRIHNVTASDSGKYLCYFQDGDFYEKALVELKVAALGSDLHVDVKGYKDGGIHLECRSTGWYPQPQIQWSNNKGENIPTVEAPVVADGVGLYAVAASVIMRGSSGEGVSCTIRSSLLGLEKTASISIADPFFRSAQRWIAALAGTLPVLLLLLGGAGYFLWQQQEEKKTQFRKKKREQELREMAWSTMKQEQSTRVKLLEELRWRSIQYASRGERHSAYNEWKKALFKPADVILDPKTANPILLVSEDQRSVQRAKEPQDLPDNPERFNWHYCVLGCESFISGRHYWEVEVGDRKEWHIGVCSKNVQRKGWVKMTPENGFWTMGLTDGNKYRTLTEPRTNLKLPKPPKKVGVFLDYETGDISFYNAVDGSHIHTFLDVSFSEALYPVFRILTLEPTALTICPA
T1 sequence (O00481 30-513): as above
T3 sequence (P78410 30-334 limits assumed): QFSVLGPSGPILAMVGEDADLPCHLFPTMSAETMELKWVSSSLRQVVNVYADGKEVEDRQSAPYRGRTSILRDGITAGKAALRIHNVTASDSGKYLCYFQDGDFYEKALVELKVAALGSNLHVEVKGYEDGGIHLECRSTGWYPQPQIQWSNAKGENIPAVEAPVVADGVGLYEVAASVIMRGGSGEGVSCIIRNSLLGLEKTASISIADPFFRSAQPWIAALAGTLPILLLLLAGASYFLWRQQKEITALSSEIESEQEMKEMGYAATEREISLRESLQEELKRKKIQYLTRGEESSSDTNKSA

## 103.2 chimeric antibody VH0/Vκ0
[1]
  Theoretical Max binding (MFI): 19600 MFI
[2]
  Theoretical Max binding (MFI): 5150 MFI
[3]
  Theoretical Max binding (MFI): 8950 MFI
[4]
  Theoretical Max binding (MFI): 5940 MFI
[5]
  Kd: 0.106 nM
  Relative KD to chimeric: 1
  koff: 8.98e-05 s⁻¹
  kon: 845000 M⁻¹ s⁻¹
[6]
  Kd: 0.0403 nM
  Relative KD to 103.2 chimeric: 1
[7]
  EC50: 0.014 µg/mL
[8]
  EC50: 0.019 µg/mL
[9]
  EC50: 0.013 µg/mL
[10]
  EC50: 0.012 µg/mL

B1: 103.2 humanized variant VH4/Vκ4 (antibody, V domains shown)
VH: QVQMQQSGAEVKKPGASVKVSCKASGYAFTSYLIHWIKQRPGQGLEWIGVINPRSGDSHYNEKFKDRVTMTADQSISTAYMELSRLRSDDTAVYYCARSDYGAYWGQGTLVTVSS
VL: EIVLTQSPATLSVSPGERATLSCRASQSISNNLHWYQQKPGQAPRLLIKYASQSAFGIPARFSGSGSGTEFTLTISSLQSEDFAVYFCQQSNSWPHTFGQGTKLEIK
notes: also called H4K4; 103.2 VH4/V κ 4
[2]
  Theoretical Max binding (MFI): 4970 MFI
[3]
  Theoretical Max binding (MFI): 8560 MFI
[11]
  IC50 (µg/ml), inhibition of γδ T cell degranulation (CD107a/b) against Daudi cells: 0.0121 µg/mL
[4]
  Theoretical Max binding (MFI): 5820 MFI
[7]
  EC50: 0.013 µg/mL
[12]
  Kd: 0.054 nM
  Relative KD to 103.2 chimeric: 1.3 ratio
[13]
  Kd: 0.108 nM
  Relative KD to chimeric: 1 ratio
  koff: 8.33e-05 s⁻¹
  kon: 770000 M⁻¹ s⁻¹
[9]
  EC50: 0.012 µg/mL
[14]
  EC50: 0.017 µg/mL
[10]
  EC50: 0.011 µg/mL

B2: mAb1 (Fc-silenced humanized 103.2 IgG1) (antibody, V domains shown)
VH: QVQMQQSGAEVKKPGASVKVSCKASGYAFTSYLIHWIKQRPGQGLEWIGVINPRSGDSHYNEKFKDRVTMTADQSISTAYMELSRLRSDDTAVYYCARSDYGAYWGQGTLVTVSS
VL: EIVLTQSPATLSVSPGERATLSCRASQSISNNLHWYQQKPGQAPRLLIKYASQSAFGIPARFSGSGSGTEFTLTISSLQSEDFAVYFCQQSNSWPHTFGQGTKLEIKR
notes: Fc-silenced human IgG1, kappa; also called humanized 103.2 Fc-silenced IgG1; Hu103.2
[15]
  binding result: binds
[16]
  binding result: binds
